Values belong to the molecule of their own block, whether it stands above or below them.
Legend:
Type in all cases: biochemical
[1] = Lipase enzyme analysis, free fatty acid (Phenolphthalein) Test; details: substrate Fat / Vegetable oil; enzyme 1 mg/ml; 480 nM; n = 4
Experimental: Lipase enzyme from porcine and Rhizopus oryzae at 1 mg/ml concentration and a control of no enzymes were subjected the free fatty acid (Phenolphthalein) Test followed by spectrophotometric analysis at […].

[2] = Amylase enzyme analysis, Benedict's Test, substrate Starch; details: enzyme 1 mg/ml, 10 minutes, pH 7, 38° C., 580 nm, n = 4
Experimental: (§1) Amylase enzyme from porcine and Bacillus amyloliquefaciens at 1 mg/ml concentration and a control of no enzymes were subjected to the Benedict's Test for 10 minutes at pH 7, 38° C., followed by spectrophotometric analysis at […].

[3] = Amylase enzyme analysis, Benedict's Test, substrate Dextrose; details: enzyme 1 mg/ml, 10 minutes, pH 7, 38° C., 580 nm, n = 4
Experimental: as §1

[4] = Amylase enzyme analysis, Benedict's Test, substrate Maltose; details: enzyme 1 mg/ml, 10 minutes, pH 7, 38° C., 580 nm, n = 4
Experimental: as §1

absorbance, free fatty acid (Phenolphthalein) Test [1]: 3.17 +/− 0.11
B1: Porcine Lipase: Lipase enzyme from porcine (protein, UniProt P00591 1-450, looked up)
Pancreatic triacylglycerol …: SEVCFPRLGCFSDDAPWAGIVQRPLKILPWSPKDVDTRFLLYTNQNQNNYQELVADPSTITNSNFRMDRKTRFIIHGFIDKGEEDWLSNICKNLFKVESVNCICVDWKGGSRTGYTQASQNIRIVGAEVAYFVEVLKSSLGYSPSNVHVIGHSLGSHAAGEAGRRTNGTIERITGLDPAEPCFQGTPELVRLDPSDAKFVDVIHTDAAPIIPNLGFGMSQTVGHLDFFPNGGKQMPGCQKNILSQIVDIDGIWEGTRDFVACNHLRSYKYYADSILNPDGFAGFPCDSYNVFTANKCFPCPSEGCPQMGHYADRFPGKTNGVSQVFYLNTGDASNFARWRYKVSVTLSGKKVTGHILVSLFGNEGNSRQYEIYKGTLQPDNTHSDEFDSDVEVGDLQKVKFIWYNNNVINPTLPRVGASKITVERNDGKVYDFCSQETVREEVLLTLNPC

absorbance, Benedict's Test [2]: 2.087 +/− 0.11 | absorbance, Benedict's Test [3]: 3.078 +/− 0.13 | absorbance, Benedict's Test [4]: 3.108 +/− 0.15
B2: Porcine Amylase: Amylase enzyme from porcine (protein, UniProt P00690 16-511, looked up)
Pancreatic alpha-amylase: QYAPQTQSGRTSIVHLFEWRWVDIALECERYLGPKGFGGVQVSPPNENIVVTNPSRPWWERYQPVSYKLCTRSGNENEFRDMVTRCNNVGVRIYVDAVINHMCGSGAAAGTGTTCGSYCNPGNREFPAVPYSAWDFNDGKCKTASGGIESYNDPYQVRDCQLVGLLDLALEKDYVRSMIADYLNKLIDIGVAGFRIDASKHMWPGDIKAVLDKLHNLNTNWFPAGSRPFIFQEVIDLGGEAIQSSEYFGNGRVTEFKYGAKLGTVVRKWSGEKMSYLKNWGEGWGFMPSDRALVFVDNHDNQRGHGAGGASILTFWDARLYKVAVGFMLAHPYGFTRVMSSYRWARNFVNGQDVNDWIGPPNNNGVIKEVTINADTTCGNDWVCEHRWRQIRNMVWFRNVVDGQPFANWWANGSNQVAFGRGNRGFIVFNNDDWQLSSTLQTGLPGGTYCDVISGDKVGNSCTGIKVYVSSDGTAQFSISNSAEDPFIAIHAESKL

Source: patent US20230118104A1, “COMPOSITIONS AND METHODS FOR TREATING PANCREATIC ENZYME DEFICIENCIES IN MAMMALS” (Vets Plus, Inc., priority 2018, published 2023)
